According to patent US20220010021A1 (Sanofi, published 2022):

Columns and labels:
[1] = molecular target: human FGFR1c/KLB receptor complex on iLite FGF21 Assay Ready Cells (human, UniProt P11362 22-822; Q86Z14 1-1044); assay: cell-based or functional assay; as to Mean E max (%): reference of the scale not given here
human beta-Klotho (KLB) = molecular target: T1, human beta-Klotho (KLB) (human, UniProt Q86Z14 53-997); assay: BLI off-rate screening, mAb captured, KLB analyte;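 also: Off-rate taken from the dissociation phase, biosensors held in D-PBS with 0.1% BSA over 1800 s, antibody supernatants diluted to 25 µg/mL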
T1 construct: bought protein, used as analyte in the off-rate screening; also called human KLB; β-Klotho
T1 sequence (looked up): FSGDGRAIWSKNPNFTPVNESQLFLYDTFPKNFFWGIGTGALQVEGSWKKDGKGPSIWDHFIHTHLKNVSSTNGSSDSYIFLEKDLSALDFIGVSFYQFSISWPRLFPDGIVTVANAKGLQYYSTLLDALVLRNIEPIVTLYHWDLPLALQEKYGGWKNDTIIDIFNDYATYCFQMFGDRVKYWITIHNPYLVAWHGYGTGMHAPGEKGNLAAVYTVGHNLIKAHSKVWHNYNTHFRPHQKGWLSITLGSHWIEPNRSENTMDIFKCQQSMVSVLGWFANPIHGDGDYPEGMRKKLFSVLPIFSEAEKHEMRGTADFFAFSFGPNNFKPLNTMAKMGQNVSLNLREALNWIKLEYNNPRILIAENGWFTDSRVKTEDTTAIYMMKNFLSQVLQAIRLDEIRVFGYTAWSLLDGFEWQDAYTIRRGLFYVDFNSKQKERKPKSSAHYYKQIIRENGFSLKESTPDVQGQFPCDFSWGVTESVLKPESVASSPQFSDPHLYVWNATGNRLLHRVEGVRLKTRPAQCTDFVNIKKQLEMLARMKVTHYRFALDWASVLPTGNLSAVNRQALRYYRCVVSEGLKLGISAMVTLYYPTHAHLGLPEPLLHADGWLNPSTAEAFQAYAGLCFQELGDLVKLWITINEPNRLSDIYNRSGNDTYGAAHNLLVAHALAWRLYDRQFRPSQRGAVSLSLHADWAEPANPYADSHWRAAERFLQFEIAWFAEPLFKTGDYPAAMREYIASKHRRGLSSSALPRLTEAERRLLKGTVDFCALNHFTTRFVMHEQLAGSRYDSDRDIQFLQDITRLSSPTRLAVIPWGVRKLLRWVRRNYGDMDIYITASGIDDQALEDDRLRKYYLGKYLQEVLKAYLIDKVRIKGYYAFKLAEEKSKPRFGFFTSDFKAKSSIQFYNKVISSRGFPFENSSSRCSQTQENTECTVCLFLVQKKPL

human FGFR1c/KLB receptor complex on iLite FGF21 Assay Ready Cells, sequence (P11362 22-822, chain 1 of 2): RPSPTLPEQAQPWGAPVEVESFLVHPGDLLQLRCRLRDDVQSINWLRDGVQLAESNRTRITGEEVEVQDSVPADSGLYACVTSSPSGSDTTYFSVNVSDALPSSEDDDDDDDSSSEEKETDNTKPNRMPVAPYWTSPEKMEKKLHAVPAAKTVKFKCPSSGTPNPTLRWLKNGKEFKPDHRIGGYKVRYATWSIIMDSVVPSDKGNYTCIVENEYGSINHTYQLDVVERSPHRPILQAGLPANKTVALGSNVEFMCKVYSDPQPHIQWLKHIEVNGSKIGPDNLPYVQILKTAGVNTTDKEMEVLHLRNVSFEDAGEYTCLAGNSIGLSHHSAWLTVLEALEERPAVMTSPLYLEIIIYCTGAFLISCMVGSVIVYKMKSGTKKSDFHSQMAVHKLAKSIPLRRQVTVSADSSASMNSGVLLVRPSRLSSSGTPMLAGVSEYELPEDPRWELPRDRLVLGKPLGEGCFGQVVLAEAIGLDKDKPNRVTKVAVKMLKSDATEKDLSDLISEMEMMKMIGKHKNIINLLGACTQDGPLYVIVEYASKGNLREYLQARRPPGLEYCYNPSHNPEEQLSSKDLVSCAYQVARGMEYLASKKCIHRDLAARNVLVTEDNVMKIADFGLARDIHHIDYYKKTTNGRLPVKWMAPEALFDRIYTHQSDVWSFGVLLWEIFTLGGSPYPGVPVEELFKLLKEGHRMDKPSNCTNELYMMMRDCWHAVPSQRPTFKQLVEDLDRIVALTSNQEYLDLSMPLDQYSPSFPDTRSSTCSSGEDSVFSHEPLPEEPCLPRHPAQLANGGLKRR
human FGFR1c/KLB receptor complex on iLite FGF21 Assay Ready Cells, sequence (Q86Z14 whole entry, chain 2 of 2): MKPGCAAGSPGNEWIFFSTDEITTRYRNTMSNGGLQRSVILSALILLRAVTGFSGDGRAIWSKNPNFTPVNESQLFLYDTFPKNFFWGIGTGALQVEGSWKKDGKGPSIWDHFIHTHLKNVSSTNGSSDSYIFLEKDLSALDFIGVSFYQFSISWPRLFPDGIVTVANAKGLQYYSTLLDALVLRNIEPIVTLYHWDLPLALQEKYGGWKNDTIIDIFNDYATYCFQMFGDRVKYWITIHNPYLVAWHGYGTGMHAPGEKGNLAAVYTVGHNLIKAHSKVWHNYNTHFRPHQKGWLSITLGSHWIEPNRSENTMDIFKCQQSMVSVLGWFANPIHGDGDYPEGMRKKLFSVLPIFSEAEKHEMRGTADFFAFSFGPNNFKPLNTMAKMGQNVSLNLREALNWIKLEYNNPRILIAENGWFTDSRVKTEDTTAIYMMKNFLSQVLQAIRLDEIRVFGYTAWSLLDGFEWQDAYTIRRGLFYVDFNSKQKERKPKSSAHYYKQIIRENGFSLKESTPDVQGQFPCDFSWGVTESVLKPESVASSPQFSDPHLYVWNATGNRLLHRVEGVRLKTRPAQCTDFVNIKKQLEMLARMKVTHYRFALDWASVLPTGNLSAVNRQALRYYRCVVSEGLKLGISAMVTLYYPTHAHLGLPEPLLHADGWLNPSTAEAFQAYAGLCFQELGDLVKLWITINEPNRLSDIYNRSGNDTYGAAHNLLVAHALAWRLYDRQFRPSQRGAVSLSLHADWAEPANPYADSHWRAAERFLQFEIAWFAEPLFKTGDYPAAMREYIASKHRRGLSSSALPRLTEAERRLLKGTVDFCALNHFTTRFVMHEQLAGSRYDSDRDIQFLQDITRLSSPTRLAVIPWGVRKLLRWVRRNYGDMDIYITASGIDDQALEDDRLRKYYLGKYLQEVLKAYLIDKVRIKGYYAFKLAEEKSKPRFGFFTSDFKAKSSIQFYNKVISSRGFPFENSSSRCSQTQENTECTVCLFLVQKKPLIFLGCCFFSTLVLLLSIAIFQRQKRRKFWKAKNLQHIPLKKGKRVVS

B1: 16H7 variant with light chain substitution D52H (antibody, V domains shown)
VH: not shown
VL: SYVLTQPPSVSVAPGQTARITCGGNNIGSESVHWYQQKPGQAPVLVVYDDSHRPSGIPERFSGSNSGNTATLTISRVEAGDEADYYCQVWDGNSDHVVFGGGTKLTVLG
Mean E max (%) [1]: 97%
Mean EC50 [1]: 0.109 nM
koff (human beta-Klotho (KLB)): 3.6e-05 s⁻¹

B2: 16H7 variant with light chain substitution P54F (antibody, V domains shown)
VH: not shown
VL: SYVLTQPPSVSVAPGQTARITCGGNNIGSESVHWYQQKPGQAPVLVVYDDSDRFSGIPERFSGSNSGNTATLTISRVEAGDEADYYCQVWDGNSDHVVFGGGTKLTVLG
Mean E max (%) [1]: 105%
Mean EC50 [1]: 0.143 nM
koff (human beta-Klotho (KLB)): 0.00012 s⁻¹

B3: 16H7 variant with light chain substitution D52K (antibody, V domains shown)
VH: not shown
VL: SYVLTQPPSVSVAPGQTARITCGGNNIGSESVHWYQQKPGQAPVLVVYDDSKRPSGIPERFSGSNSGNTATLTISRVEAGDEADYYCQVWDGNSDHVVFGGGTKLTVLG
Mean E max (%) [1]: 101%
Mean EC50 [1]: 0.117 nM
koff (human beta-Klotho (KLB)): 9.2e-05 s⁻¹

B4: 16H7 variant with light chain substitution P54L (antibody, V domains shown)
VH: not shown
VL: SYVLTQPPSVSVAPGQTARITCGGNNIGSESVHWYQQKPGQAPVLVVYDDSDRLSGIPERFSGSNSGNTATLTISRVEAGDEADYYCQVWDGNSDHVVFGGGTKLTVLG
Mean E max (%) [1]: 108%
Mean EC50 [1]: 0.133 nM
koff (human beta-Klotho (KLB)): 9.6e-05 s⁻¹

B5: 16H7 variant with light chain substitution P54H (antibody, V domains shown)
VH: not shown
VL: SYVLTQPPSVSVAPGQTARITCGGNNIGSESVHWYQQKPGQAPVLVVYDDSDRHSGIPERFSGSNSGNTATLTISRVEAGDEADYYCQVWDGNSDHVVFGGGTKLTVLG
Mean E max (%) [1]: 100%
Mean EC50 [1]: 0.111 nM
koff (human beta-Klotho (KLB)): 0.00014 s⁻¹

B6: 16H7 variant with light chain substitution P54I (antibody, V domains shown)
VH: not shown
VL: SYVLTQPPSVSVAPGQTARITCGGNNIGSESVHWYQQKPGQAPVLVVYDDSDRISGIPERFSGSNSGNTATLTISRVEAGDEADYYCQVWDGNSDHVVFGGGTKLTVLG
Mean E max (%) [1]: 112%
Mean EC50 [1]: 0.115 nM
koff (human beta-Klotho (KLB)): 3.5e-05 s⁻¹

B7: 16H7 variant with light chain substitution D52M (antibody, V domains shown)
VH: not shown
VL: SYVLTQPPSVSVAPGQTARITCGGNNIGSESVHWYQQKPGQAPVLVVYDDSMRPSGIPERFSGSNSGNTATLTISRVEAGDEADYYCQVWDGNSDHVVFGGGTKLTVLG
Mean E max (%) [1]: 105%
Mean EC50 [1]: 0.144 nM
koff (human beta-Klotho (KLB)): 2.4e-05 s⁻¹

B8: 16H7 variant with light chain substitution P54G (antibody, V domains shown)
VH: not shown
VL: SYVLTQPPSVSVAPGQTARITCGGNNIGSESVHWYQQKPGQAPVLVVYDDSDRGSGIPERFSGSNSGNTATLTISRVEAGDEADYYCQVWDGNSDHVVFGGGTKLTVLG
Mean E max (%) [1]: 114%
Mean EC50 [1]: 0.141 nM
koff (human beta-Klotho (KLB)): 5.1e-05 s⁻¹

B9: 16H7 variant with light chain substitution P54C (antibody, V domains shown)
VH: not shown
VL: SYVLTQPPSVSVAPGQTARITCGGNNIGSESVHWYQQKPGQAPVLVVYDDSDRCSGIPERFSGSNSGNTATLTISRVEAGDEADYYCQVWDGNSDHVVFGGGTKLTVLG
Mean E max (%) [1]: 100%
Mean EC50 [1]: 0.116 nM
koff (human beta-Klotho (KLB)): 0.00012 s⁻¹

B10: 16H7 variant with light chain substitution D52S (antibody, V domains shown)
VH: not shown
VL: SYVLTQPPSVSVAPGQTARITCGGNNIGSESVHWYQQKPGQAPVLVVYDDSSRPSGIPERFSGSNSGNTATLTISRVEAGDEADYYCQVWDGNSDHVVFGGGTKLTVLG
Mean E max (%) [1]: 108%
Mean EC50 [1]: 0.098 nM
koff (human beta-Klotho (KLB)): 4e-05 s⁻¹

B11: 16H7 variant with light chain substitution P54S (antibody, V domains shown)
VH: not shown
VL: SYVLTQPPSVSVAPGQTARITCGGNNIGSESVHWYQQKPGQAPVLVVYDDSDRSSGIPERFSGSNSGNTATLTISRVEAGDEADYYCQVWDGNSDHVVFGGGTKLTVLG
Mean E max (%) [1]: 102%
Mean EC50 [1]: 0.103 nM
koff (human beta-Klotho (KLB)): 7.9e-05 s⁻¹

B12: 16H7 variant with light chain substitution D52R (antibody, V domains shown)
VH: not shown
VL: SYVLTQPPSVSVAPGQTARITCGGNNIGSESVHWYQQKPGQAPVLVVYDDSRRPSGIPERFSGSNSGNTATLTISRVEAGDEADYYCQVWDGNSDHVVFGGGTKLTVLG
Mean E max (%) [1]: 96%
Mean EC50 [1]: 0.091 nM
koff (human beta-Klotho (KLB)): 2.9e-05 s⁻¹

B13: 16H7 variant with light chain substitution D52V (antibody, V domains shown)
VH: not shown
VL: SYVLTQPPSVSVAPGQTARITCGGNNIGSESVHWYQQKPGQAPVLVVYDDSVRPSGIPERFSGSNSGNTATLTISRVEAGDEADYYCQVWDGNSDHVVFGGGTKLTVLG
Mean E max (%) [1]: 114%
Mean EC50 [1]: 0.125 nM
koff (human beta-Klotho (KLB)): 6.9e-05 s⁻¹

B14: 16H7 variant with light chain substitution P54M (antibody, V domains shown)
VH: not shown
VL: SYVLTQPPSVSVAPGQTARITCGGNNIGSESVHWYQQKPGQAPVLVVYDDSDRMSGIPERFSGSNSGNTATLTISRVEAGDEADYYCQVWDGNSDHVVFGGGTKLTVLG
Mean E max (%) [1]: 98%
Mean EC50 [1]: 0.087 nM
koff (human beta-Klotho (KLB)): 3.2e-05 s⁻¹

B15: 16H7 variant with light chain substitution P54N (antibody, V domains shown)
VH: not shown
VL: SYVLTQPPSVSVAPGQTARITCGGNNIGSESVHWYQQKPGQAPVLVVYDDSDRNSGIPERFSGSNSGNTATLTISRVEAGDEADYYCQVWDGNSDHVVFGGGTKLTVLG
Mean E max (%) [1]: 105%
Mean EC50 [1]: 0.15 nM
koff (human beta-Klotho (KLB)): 0.00014 s⁻¹

B16: 16H7 variant with light chain substitution D52Y (antibody, V domains shown)
VH: not shown
VL: SYVLTQPPSVSVAPGQTARITCGGNNIGSESVHWYQQKPGQAPVLVVYDDSYRPSGIPERFSGSNSGNTATLTISRVEAGDEADYYCQVWDGNSDHVVFGGGTKLTVLG
Mean E max (%) [1]: 102%
Mean EC50 [1]: 0.11 nM
koff (human beta-Klotho (KLB)): 9.1e-05 s⁻¹

B17: 16H7 variant with light chain substitution P54D (antibody, V domains shown)
VH: not shown
VL: SYVLTQPPSVSVAPGQTARITCGGNNIGSESVHWYQQKPGQAPVLVVYDDSDRDSGIPERFSGSNSGNTATLTISRVEAGDEADYYCQVWDGNSDHVVFGGGTKLTVLG
Mean E max (%) [1]: 96%
Mean EC50 [1]: 0.115 nM
koff (human beta-Klotho (KLB)): 0.00028 s⁻¹

B18: 16H7 variant with light chain substitution P54V (antibody, V domains shown)
VH: not shown
VL: SYVLTQPPSVSVAPGQTARITCGGNNIGSESVHWYQQKPGQAPVLVVYDDSDRVSGIPERFSGSNSGNTATLTISRVEAGDEADYYCQVWDGNSDHVVFGGGTKLTVLG
Mean E max (%) [1]: 109%
Mean EC50 [1]: 0.11 nM
koff (human beta-Klotho (KLB)): 4.1e-05 s⁻¹

B19: 16H7 variant with light chain substitution P54K (antibody, V domains shown)
VH: not shown
VL: SYVLTQPPSVSVAPGQTARITCGGNNIGSESVHWYQQKPGQAPVLVVYDDSDRKSGIPERFSGSNSGNTATLTISRVEAGDEADYYCQVWDGNSDHVVFGGGTKLTVLG
Mean E max (%) [1]: 100%
Mean EC50 [1]: 0.131 nM
koff (human beta-Klotho (KLB)): 0.00016 s⁻¹

B20: 16H7 variant with light chain substitution P54T (antibody, V domains shown)
VH: not shown
VL: SYVLTQPPSVSVAPGQTARITCGGNNIGSESVHWYQQKPGQAPVLVVYDDSDRTSGIPERFSGSNSGNTATLTISRVEAGDEADYYCQVWDGNSDHVVFGGGTKLTVLG
Mean E max (%) [1]: 108%
Mean EC50 [1]: 0.113 nM
koff (human beta-Klotho (KLB)): 0.00018 s⁻¹

B21: 16H7 variant with light chain substitution D52N (antibody, V domains shown)
VH: not shown
VL: SYVLTQPPSVSVAPGQTARITCGGNNIGSESVHWYQQKPGQAPVLVVYDDSNRPSGIPERFSGSNSGNTATLTISRVEAGDEADYYCQVWDGNSDHVVFGGGTKLTVLG
Mean E max (%) [1]: 115%
Mean EC50 [1]: 0.124 nM
koff (human beta-Klotho (KLB)): 6.9e-07 s⁻¹

B22: 16H7 variant with light chain substitution D52Q (antibody, V domains shown)
VH: not shown
VL: SYVLTQPPSVSVAPGQTARITCGGNNIGSESVHWYQQKPGQAPVLVVYDDSQRPSGIPERFSGSNSGNTATLTISRVEAGDEADYYCQVWDGNSDHVVFGGGTKLTVLG
Mean E max (%) [1]: 101%
Mean EC50 [1]: 0.107 nM
koff (human beta-Klotho (KLB)): 2.7e-05 s⁻¹

B23: 16H7 variant with light chain substitution D52T (antibody, V domains shown)
VH: not shown
VL: SYVLTQPPSVSVAPGQTARITCGGNNIGSESVHWYQQKPGQAPVLVVYDDSTRPSGIPERFSGSNSGNTATLTISRVEAGDEADYYCQVWDGNSDHVVFGGGTKLTVLG
Mean E max (%) [1]: 100%
Mean EC50 [1]: 0.109 nM
koff (human beta-Klotho (KLB)): 1.8e-05 s⁻¹

B24: 16H7 variant with light chain substitution D52L (antibody, V domains shown)
VH: not shown
VL: SYVLTQPPSVSVAPGQTARITCGGNNIGSESVHWYQQKPGQAPVLVVYDDSLRPSGIPERFSGSNSGNTATLTISRVEAGDEADYYCQVWDGNSDHVVFGGGTKLTVLG
Mean E max (%) [1]: 106%
Mean EC50 [1]: 0.107 nM
koff (human beta-Klotho (KLB)): 5.7e-05 s⁻¹

B25: 16H7 variant with light chain substitution D52I (antibody, V domains shown)
VH: not shown
VL: SYVLTQPPSVSVAPGQTARITCGGNNIGSESVHWYQQKPGQAPVLVVYDDSIRPSGIPERFSGSNSGNTATLTISRVEAGDEADYYCQVWDGNSDHVVFGGGTKLTVLG
Mean E max (%) [1]: 110%
Mean EC50 [1]: 0.14 nM
koff (human beta-Klotho (KLB)): 2.8e-05 s⁻¹
